Laboratory results: PMC5027247

What was measured:
Test in all cases: ITC; 25 °C; 50 mM Tris pH 7.5, 100 mM NaCl, 1 mM EDTA, 1 mM DTT; 1 mM TBK1 fragment in the syringe, 0.1 mM OPTN or NAP1 fragment in the cell; one-site binding model
[1] = target: OPTN L54Q (ITC sample) (human) (UniProt Q96CV9)
[2] = target: OPTN M44Q (ITC sample) (human) (UniProt Q96CV9)
[3] = target: OPTN L47Q (ITC sample) (human) (UniProt Q96CV9)

Kd [1]: 20 µM
Kd [2]: 22.6 µM
Kd [3]: 26 µM
B1: TBK1 CTD (residues 677–729) (domain or fragment)
chain: YPSSNTLVEMTLGMKKLKEEMEGVVKELAENNHILERFGSLTMDGGLRNVDCL
